Assay results taken from the supplement of paper PMC11780869.

Test system: Bacillus subtilis
Assay: cleaved RNA product abundance (RNA/gDNA barcode ratio) relative to median wild-type variant (ratio to wild type); higher = more accumulation of the downstream cleavage product
Procedure, shortened: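 Truncated aprE or tetM reporter mRNAs with barcoded RNase Y cleavage-site windows, mutagenized from oligos at a 9% error rate, sat in the B. subtilis chromosome. Cells grew in LB at 37°C from OD600 0.0003 to 0.3. Gel-selected cleaved RNA was reverse transcribed and its barcodes sequenced with those from genomic DNA, collapsing by UMI. Cleaved product abundance equals the RNA:gDNA barcode ratio per construct over the median construct with the unmutated site.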

[1] = experiment (reporter, strain, medium): exp 8a: truncated aprE reporter, strain BJT201 with 2% xylose (RNase J1 expressed), cleavage site: glnRA (positions -5 to +31 mutated)
[2] = experiment (reporter, strain, medium): exp 2b: truncated aprE reporter, strain BJT200, cleavage site: cggR-gapA (positions -7 to +36 mutated)
[3] = experiment (reporter, strain, medium): exp 4a: truncated aprE reporter, strain BJT201 with 2% xylose (RNase J1 expressed), cleavage site: cggR-gapA (positions -7 to +36 mutated)

Sequence	cleaved RNA product abundance [1]	cleaved RNA product abundance [2]	cleaved RNA product abundance [3]
CGACATGTCCCGCTTCTTTCATTAAACCGTTAGCAACTGTTTAGCTATATACATTTACCTTTTAAGAGGAGGAAT	0.248	–	–
ACAGACGAAGGAGCCGCAAAGAAGTTATTAAGGGATGAATTATCCTTCAATATAAATATCTCTCACTTATTTAAA	–	0.232	0.284
ACAGACGAAGGAGCCGCAAAGAACTAATTAAGGGATGAATAATCCCTCAATATAAATATCTCTCACTTATTTAAA	–	–	0.321
CGACATGTCCCGCTTCTTTCATTAATCCTTTAGCAACTGTTTTGATATATACATTTACCTTTTAAGAGGAGGAAT	0.374	–	–
ACAGACGAAGGAGCCGCAAAGAATTTATTAAGGGATGAATAATCCCTCAACATAAATATCTCTCACTTATTTAAA	–	0.298	0.365
CGACATGTCCCGCTTCTTTCATTAATCCGTTATCAACTGTTTTGCTGTATACATTTACCTTTTAAGAGGAGGAAT	0.192	–	–
ACAGACGAAGGAGCCGCAACGAAGTTATTAAGGAATAAATAATCCCTCAATATAAATATCTCTCACTTATTTAAA	–	–	0.0859
ACAGACGAAGGAGCCGCAAATAAGTTATTAAGGGATGAATAGTCCCTCAATATAAATATCTCTCACTTATTTAAA	–	0.852	0.887
ACAGACGAAGGAGCCGCAAAGAAGTTATTCAGGGATAAATAATCCCTCAATATAAATATCTCTCACTTATTTAAA	–	–	1.1
ACAGACGAAGGAGCCGCAAAGAAGTTATTAAGGGATGAATAATCCCTCAAATATAAATATCTCTCACTTATTTAA	–	0.38	0.539
ACAGACGAAGGAGCCGCAAAGAAGTTATTAAGGCATGAATAATCCCTCCATATAAATATCTCTCACTTATTTAAA	–	0.0936	–
CGACATGTCCCGCTTCTTTCATTAATCCGTTAGCAACTGTTTTGCTATATACATTTATCGTTTAAGAGGAGGAAT	0.92	–	–
CGACATGTCCCGCTTCTTTCATTAATCCGTTAGCAACTGTTTTGCTAAATACATTTATCTTTTAAGAGGAGGAAT	0.814	–	–
ACAGACGAAGGAGCCGCAAAGAAGTTATTAAGGGATCAATAATCACTCAATATAAATATCTCTCACTTATTTAAA	–	0.0917	0.0833
ACAGACGAAGGAGCCGCAAAGAAGTTATTAAGGGATGAATAATTCCTCACTATAAATATCTCTCACTTATTTAAA	–	0.132	0.156
ACAGACGAAGGAGCCGCAAAGAAGTCATTAAGCGATGAATAATCCCTCAATATAAATATCTCTCACTTATTTAAA	–	–	0.0665
ACAGACGAAGGAGCCGCAAAGAAGTTATTAAGGGATGAATAATACCTCAATATATATATCTCTCACTTATTTAAA	–	–	0.123
ACAGACGAAGGAGCCGCAAAAAAGTTATTAAGGGATGAATAATCCCTCAGTATAAATATCTCTCACTTATTTAAA	–	0.266	0.42
ACAGACGAAGGAGCCGCAAAGAAGTTATTAAGGGATTAAGAATCCCTCAATATAAATATCTCTCACTTATTTAAA	–	–	1.06
CGACATGTCCCGCTTCTTTCATTAATACGTTAGCAACTGTTTTGCTATATACATTTATCTTTTAAGAGGAGGAAT	1.51	–	–
ACAGACGAAGGAGCCGCAAAAAAGTTATTAAGGGATGAATAATCCCTCAATATAAAGATCTCTCACTTATTTAAA	–	–	0.56
ACAGACGAAGGAGCCGCAAAGAAGTTATTAATGGATGAATACTCCCTCAATATAAATATCTCTCACTTATTTAAA	–	–	0.0655
ACAGACGAAGGAGCCGCAAAGAAGTTATTATGGGATGATTAATCCCTCAATATAAATATCTCTCACTTATTTAAA	–	–	0.414

Sequence	cleaved RNA product abundance [1]	cleaved RNA product abundance [2]	cleaved RNA product abundance [3]
ACAGACGAAGGAGCCGCAAAGAAGTTATTAAGGAATGAATAACCCCTCAATATAAATATCTCTCACTTATTTAAA	–	–	0.101
CGACATGTCCCGCTTCTTTCATTAATCCGTTAGCAACTGATTTGCTAAATACATTTACCTTTTAAGAGGAGGAAT	0.217	–	–
ACAGACGAAGGAGCCGCAAAGAAGATATTAAGGGATCAATAATCCCTCAATATAAATATCTCTCACTTATTTAAA	–	0.501	0.815
ACAGACGAAGGAGCCGCAAAGTAGTTATTTAGGGATGAATAATCCCTCAATATAAATATCTCTCACTTATTTAAA	–	0.726	0.869
CGACATGTCCCGCTTCTTTCATTAATCCGTTAGCAACGGTTTTGATATATACATTTACCTTTTAAGAGGAGGAAT	0.515	–	–
ACAGACGAAGGAGCCGCAAAGAAGTTATTAAGAGATGAATCATCCCTCAATATAAATATCTCTCACTTATTTAAA	–	–	0.139
ACAGACGAAGGAGCCGCAAAGAACGTATTAAGGGATGAATAATCCCTCAATATAAATATCTCTCACTTATTTAAA	–	–	0.724
CGACATGTCCCGCTTCTTTCATTAATCCGTTAGCAAATGTTTTGCTATATACATTTACATTTTAAGAGGAGGAAT	1.23	–	–
ACAGACGAAGGAGCCGCAAAGAAGTTATTAAGCGATGAATAATCCCCCAATATAAATATCTCTCACTTATTTAAA	–	0.0922	0.13
CGACATGTCCCGCTTCTTTCATTATCCCGTTAGCAACTGTTTTGCTATATACATTTACCTTTTAAGAGGAGGAAT	1.49	–	–
ACAGACGAAGGAGCCGCAAAGAATTTATTAAGGGATGAATAATCCCTCAATATAAGTATCTCTCACTTATTTAAA	–	–	0.216
ACAGACGAAGGAGCCGCAAAGAAGTTATTAAGCGATGAATAATCCCTCAAGATAAATATCTCTCACTTATTTAAA	–	0.0861	0.0789
CGACATGTCCCGCTTCTTTCATTAATCCATTACCAACTGTTTTGCTATATACATTTACCTTTTAAGAGGAGGAAT	0.17	–	–
ACAGACGAAGGAGCCGCAAAGAAGTTATTAAGAGATGAATAATCCCTCAATATAAATGTCTCTCACTTATTTAAA	–	–	0.0916
ACAGACGAAGGAGCCGCAAAGAAGTCATTAATGGATGAATAATCCCTCAATATAAATATCTCTCACTTATTTAAA	–	0.0927	0.171
ACAGACGAAGGAGCCGCAAAGAAGTTATTAAGGGATGAATAATCCCTCTATATAAACATCTCTCACTTATTTAAA	–	0.362	–
ACAGACGAAGGAGCCGCAAAGACGTTATTAAGGGATGAATAATCCCTCTATATAAATATCTCTCACTTATTTAAA	–	–	0.572
CGACATGTCCCGCTTCTTTCATTAATCCGTAAGCAACTGTTTTGCTATATACATTTACATTTTAAGAGGAGGAAT	0.531	–	–
ACAGACGAAGGAGCCGCAAAGAACTTATTAAGGGATAAATAATCCCTCAATATAAATATCTCTCACTTATTTAAA	–	0.556	0.477
CGACATGTCCCGCTTCTTTCATTAATCCGTTAGCAACTGATTTGCTATATACATTAACCTTTTAAGAGGAGGAAT	1.33	–	–
ACAGACGAAGGAGCCGCCAAGAAGTTATTAAGGTATGAATAATCCCTCAATATAAATATCTCTCACTTATTTAAA	–	–	0.103
ACAGACGAAGGAGCCGCAAAGAAGTTAATAAGGGATGAATAACCCCTCAATATAAATATCTCTCACTTATTTAAA	–	–	0.192
ACAGACGAAGGAGCCGCAAAGATGTTATTAAGGGATGAATAATCCCTCACTATAAATATCTCTCACTTATTTAAA	–	0.166	–
